This series concerns the molecule itself. Kind of series: native gel or EMSA; FLAG-SAF-A cross-linked in cells with 1 mM DTME, immuno-purified, cross-links reversed with 10 mM DTT, incubated 30 min at 37°C with 1 mM ATP or ATPγS, RNase A/T1 or apyrase (the last two promoted monomerization); native PAGE and western blot. Background: A gel shift assay detects complexes by their altered migration in electrophoresis.

B1: full-length FLAG-tagged SAF-A (293T) (natural protein)
chain: not shown
notes: SAF-A (HNRNP-U), human cDNA from Genome Cube; Modified pcDNA5/FRT vector; also called FLAG-SAF-A; 3xFLAG-SAF-A; source: 293T, expressed, cross-linked in cells, immuno-purified (anti-FLAG M2 agarose, 3xFLAG peptide elution); not shown: 3xFLAG, N-terminal, kept
On to B1, for which the binding result was “binds”.

Source of the values: paper PMC5473940, “SAF-A Regulates Interphase Chromosome Structure through Oligomerization with Chromatin-Associated RNAs” (Cell, 2017).
